Data from US20250188161A1.

Assays:
Test in all cases: flow cytometry, HEK-293T cells co-transfected with mGarp and the HA-tagged TGF-β1 construct
[1] = target: HA-tagged mouse-human-mouse chimeric TGF-β1, mouse LAP residues 201-222 replaced by the corresponding human LAP segment, on HEK-293T cells co-transfected with GARP (mouse; human) (UniProt P04202)
[2] = target: HA-tagged mouse-human-mouse chimeric TGF-β1, mouse LAP residues 223-278 replaced by the corresponding human LAP segment, on HEK-293T cells co-transfected with GARP (mouse; human) (UniProt P04202)
[3] = target: HA-tagged mouse-human-mouse chimeric TGF-β1, mouse LAP residues 87-135 replaced by the corresponding human LAP segment, on HEK-293T cells co-transfected with GARP (mouse; human) (UniProt P04202)
[4] = target: HA-tagged mouse-human-mouse chimeric TGF-β1, mouse LAP residues 136-200 replaced by the corresponding human LAP segment, on HEK-293T cells co-transfected with GARP (mouse; human) (UniProt P04202)

B1: LMT-10 (20G4) (antibody, V domains shown)
VH: QVQLVESGGGLVQPGGSLTLSCAASGFTFSNYYMTWVRQAPGKGLEWVSSIYSTGSHTYYADSVKGRFTISRDNAKDTLYLQMNDLKSEDTAVYYCAKNIYTYYTAHYAGMDYWGKGTLVTVSS
VL: QSALTQPSTVSVSLGQMARITCQGGSLGSYDAHWYQQKPGQAPVLVIHDDNSRPSGIPERFSGSRSGGTATLTISGAQADDEGVYFCHSYDSSANAPVFGGGTELTVL
% binding relative to WT TGF-β1 (100 %) [1]: 126%
% binding relative to WT TGF-β1 (100 %) [2]: 99%
% binding relative to WT TGF-β1 (100 %) [3]: 158%

B2: LMT-2 (6D12) (antibody, V domains shown)
VH: EVQLVESGGGLVQPGGSLRLSCAASGFTFSNYGVHWVRQAPGKGLEWVSHISAAGISRYYADAVKGRFTMSRDNGKNTLYLQMNGLKSEDTAVYYCAKDRIRSSYEYDSWGQGTQVTVSS
VL: LPVLTQLSSMSGSPGQTVTITCTGSSSNIGGGYYLSWYQQLPGTAPKLLIYNANNRASGVPNRFSGSKSGNLASLTITGLQAEDEADYYCGCYDSSLSTGYVFGGGTKLTVL
% binding relative to WT TGF-β1 (100 %) [1]: 2%
% binding relative to WT TGF-β1 (100 %) [4]: 155%
% binding relative to WT TGF-β1 (100 %) [2]: 115%
% binding relative to WT TGF-β1 (100 %) [3]: 157%

B3: LMT-9 (20G3) (antibody, V domains shown)
VH: LQLVESGGGLVQPGGSLRLSCAASGFTFSRSGMAWVRQAPGKGLEWVSAITPGGTATYYANSVKGRVTMSRDNAKNTLYLQMNSLKSEDTAVYYCAKGLVSSGLNGMDYWGKGTLVTVSS
VL: QSVLTQLSSMSGSPGQTVTITCTGSSSNIGGGYYLSWYQQLPGTAPKLLIYNTNNRASGVPNRFSGSKTGSLASLTITGLQAEDEADYYCGCYDDSLNTYVFGGGTKLTVL
% binding relative to WT TGF-β1 (100 %) [1]: 2%
% binding relative to WT TGF-β1 (100 %) [4]: 108%
% binding relative to WT TGF-β1 (100 %) [2]: 126%
% binding relative to WT TGF-β1 (100 %) [3]: 164%

B4: LMT-12 (14D7) (antibody, V domains shown)
VH: EVQLVESGGGLVQPGGSLRLSCAASGFTFSSYYMYWVRQAPGKGLEWVSGTSIGGGSTWYADSVKGRFTISRDNAKNTLYLQMNNLKSEDTAVYYCAKDLNSRSYKGMGDWGQGTQVTVSS
VL: QPALTQLSSMSGSPGQTVTITCTGSSSNIGGGYYLNWYQQLPGAAPKLVIYNANNRASGVPDRFSGSKSGNLASLTITGLQAEDEAVYFCGCYDSSLSSVVFGGGTHLTVL
% binding relative to WT TGF-β1 (100 %) [1]: 3%
% binding relative to WT TGF-β1 (100 %) [4]: 105%
% binding relative to WT TGF-β1 (100 %) [2]: 89%
% binding relative to WT TGF-β1 (100 %) [3]: 99%

B5: LHT-18 (14E7) (antibody, V domains shown)
VH: QVQLVESGGGLVQPGGSLRLSCAASGFTFSHYWMYWVRQAPGKGLEWVSAINTGGGITYYTDSVKGRFTVSRDNAKNTLYLQMNSLKSEDTAVYYCAKSRYGVVITTTYFGGVDYWGKGTLVTVSS
VL: SSALTQPSAVSVSLGQTARITCQGGNFGSYYASWYQQKPGQAPVQVIYGNSNRPSGIPERFSGSSSGDTATLTISGAQAEDEADYYCLSYESSGYAVFGGGTHLTVL
% binding relative to WT TGF-β1 (100 %) [1]: 63%

B6: LHT-22 (15A2) (antibody, V domains shown)
VH: ELQLVESGGGLVQPGGSLRLSCAASGFTFDDYTMNWVRQAPGKGLEWVSAIRWNGVTTYYAESMKGRFTVSRDNGNNTLYLQMNSLKAEDTAVYYCAKGGSIDLTYGMDYWGKGTLVTVSS
VL: QAVVTQEPSLSVSPGGTVTITCGLSSGSVTRNNYPDWYQQTPGQAPRLLLYNTVARHSGVPSRFSGSISGNKAALTITGAQPEDEAGYYCALYMYTGSNNGRVFGGGTLLTVL
% binding relative to WT TGF-β1 (100 %) [1]: 89%

B7: LHT-15 (13E7) (antibody, V domains shown)
VH: EVQLVESGGDLVQPGGSLRLSCAASGFTFSSYWMDWVRQAPGKGLEWVSRITNSGGTAFYTDSVEGRFTISRDNAKNTLYLQMNSLKSEDTAVYYCLRYITRAQLMGAWDYWGQGTQVTVSS
VL: ATMLTQSPGSLSVVPGESASISCKASQSLVHTDGKTYLSWLLQKPGQRPQLLIYQVSNRASGVPDRFTGSGSGTDFTLKISGVKAEDAGVYYCAQSTYYPYDFGSGTRLEIR
% binding relative to WT TGF-β1 (100 %) [3]: 101%
